Measured values as given in patent publication US6686450.

System: Cabin 1-14
Sequence (chain, as listed by the source): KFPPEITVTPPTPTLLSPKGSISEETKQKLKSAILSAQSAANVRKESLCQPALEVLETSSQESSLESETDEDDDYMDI

calcineurin (endogenous, Jurkat T cells)
dephosphorylation of ΔNF-AT1 (Western blot gel shift) upon ionomycin with or without PMA: Overexpression of Cabin 1-14 inhibited the dephosphorylation of ΔNF-AT 1 upon treatment with ionomycin in the presence or absence of PMA
